Measurements: PMC7695563

Target: MG1113, IgG4 monoclonal anti-tissue factor pathway inhibitor (TFPI) antibody
Assay: SPR

Kd: 0.0467 nM
koff: 0.000131 s⁻¹
kon: 2.82e+06 M⁻¹ s⁻¹
Substance: TFPI-α (tissue factor pathway inhibitor alpha) (from UniProt P10646-1 29-304) (natural protein)
